Reference: US8580556B2, “Sulfonylurea-responsive repressor proteins” (E. I. du Pont de Nemours and Company, priority 2008, dated 2013)
Like-named read-outs stand apart in the source and are kept apart here.

System: tetA promoter (PtetA)-lacZ reporter in E. coli KM3
Format: cell-based
Conditions: for response to thifensulfuron-methyl (Ts), blue colony color: 20 μg/ml Ts, 96-well re-test, FIG. 3; for relative β-galactosidase activity, inducer atc: anhydrotetracycline 0.4 μM; for relative β-galactosidase activity, inducer Ci: chlorimuron 20 μg/ml (20 ppm); for relative β-galactosidase activity, inducer Ns: nicosulfuron 20 μg/ml (20 ppm); for relative β-galactosidase activity, inducer None / relative β-galactosidase activity, No inducer: no inducer; for relative β-galactosidase activity, inducer Rs: rimsulfuron 20 μg/ml (20 ppm); for relative β-galactosidase activity, inducer Ts: thifensulfuron 20 μg/ml (20 ppm); for relative β-galactosidase activity, inducer Tb: tribenuron 20 μg/ml (20 ppm)
[1] = Table 4, chlorsulfuron 20 μg/ml (20 ppm), 48 hrs at 30° C.
[2] = Table 4, ethametsulfuron 20 μg/ml (20 ppm), 48 hrs at 30° C.
[3] = Table 4, metsulfuron 20 μg/ml (20 ppm), 48 hrs at 30° C.
[4] = Table 4, sulfometuron 20 μg/ml (20 ppm), 48 hrs at 30° C.
[5] = Table 10, chlorsulfuron 2 ppm, 48 hours at 30° C.
[6] = Table 10, metsulfuron 2 ppm, 48 hours at 30° C.
[7] = Table 10, sulfometuron 2 ppm, 48 hours at 30° C.

Molecule | response to thifensulfuron-methyl (Ts), blue colony color | relative β-galactosidase activity, inducer atc (Table 4, 48 hrs at 30° C.) | relative β-galactosidase activity, inducer Ci (Table 4, 48 hrs at 30° C.) | relative β-galactosidase activity, inducer Cs [1] | relative β-galactosidase activity, inducer Es [2] | relative β-galactosidase activity, inducer Ms [3] | relative β-galactosidase activity, inducer Ns (Table 4, 48 hrs at 30° C.) | relative β-galactosidase activity, inducer None (Table 4, 48 hrs at 30° C.) | relative β-galactosidase activity, inducer Rs (Table 4, 48 hrs at 30° C.) | relative β-galactosidase activity, inducer Sm [4] | relative β-galactosidase activity, inducer Ts (Table 4, 48 hrs at 30° C.) | relative β-galactosidase activity, inducer Tb (Table 4, 48 hrs at 30° C.) | Inducer preference (Table 8, inducers given as numbers without key) | relative β-galactosidase activity, inducer Cs [5] | relative β-galactosidase activity, inducer Es (Table 10, ethametsulfuron 2 ppm, 48 hours at 30° C.) | relative β-galactosidase activity, inducer Ms [6] | relative β-galactosidase activity, No inducer (Table 10, 48 hours at 30° C.) | relative β-galactosidase activity, inducer Sm [7]
L1-2: library L1 hit, sulfonylurea-responsive TetR(B) variant, SEQ ID NO: 3 (protein, Sulfonylurea responsive repressor L1-02) MGSRLDKSKVINSALELLNEVGIEGLTTRKLAQKLGVEQPTLYWHVKNKRALLDALAIEMLDRHATHFCPLEGESWQDFLRNNAKSFRCALLSHRDGAKVCLGTAVTEKQYETMENILAFLCQQGFSLENALYARRAVIAFTLGCVLWDQEYQVAKEERETPTTDSMPPLLRQARELIDHQGAEPAFLFGLELIICGLEKQLKCESGS | most intensely responding | 1.2 | 13.6 | 4.1 | 5.8 | 1.9 | 1.3 | 1.0 | 1.3 | 4.7 | 1.6 | 1.7 |  |  |  |  |  | 
L1-29: library L1 hit, sulfonylurea-responsive TetR(B) variant, SEQ ID NO: 10 (protein, Sulfonylurea responsive repressor L1-29) MGSRLDKSKVINSALELLNEVGIEGLTTRKLAQKLGVEQPTLYWHVKNKRALLDALAIEMMDRHQTHFCPLEGESWQDFLRNTAKSMRCALLSHRDGAKVWLGTRWTEKQYETPENMLAFLCQQGFSLENALYAWSAVCNFTLGCVLSDQERQVAKEERETPTTDSMPPLLRQAWELSDHQGAEPAFLFGLELIICGLEKQLKCESGS |  | 0.0 | 20.9 | 15.8 | 1.7 |  | 0.1 | 0.0 | 0.1 | 2.7 | 0.0 | 0.3 | 9 (weak) | 0.2 | 0.3 | 0.3 | 0.1 | 0.2
L1-24: library L1 hit, sulfonylurea-responsive TetR(B) variant (protein, Sulfonylurea responsive repressor L1-24) MGSRLDKSKVINSALELLNEVGIEGLTTRKLAQKLGVEQPTLYWHVKNKRALLDALAIEMLDRHNTHFCPLEGESWQDFLRNSAKSMRCALLSHRDGAKVLLGTAVTEKQYETTENSLAFLCQQGFSLENALYAIRAVRTFTLGCVLVDQERQVAKEERETPTTDSMPPLLRQAKELLDHQGAEPAFLFGLELIICGLEKQLKCESGS |  | 0.1 | 22.1 | 3.3 | 0.2 | 0.4 | 0.3 | 0.1 | 0.3 | 3.1 | 0.3 | 1.6 |  |  |  |  |  | 
L1-28: library L1 hit, sulfonylurea-responsive TetR(B) variant (protein, Sulfonylurea responsive repressor L1-28) MGSRLDKSKVINSALELLNEVGIEGLTTRKLAQKLGVEQPTLYWHVKNKRALLDALAIEMLDRHATHFCPLEGESWQDFLRNNAKSMRCALLSHRDGAKVWLGTAWTEKQYETPENVLAFLCQQGFSLENALYASRAVVTFTLGCVLTDQEKQVAKEERETPTTDSMPPLLRQAWELLDHQGAEPAFLFGLELIICGLEKQLKCESGS |  | 0.0 | 14.6 | 5.8 | 0.8 | 18.8 | 0.1 | 0.0 | 0.2 | 1.1 | 0.1 | 0.3 |  |  |  |  |  | 
L1-20: library L1 hit, sulfonylurea-responsive TetR(B) variant, SEQ ID NO: 6 (protein, Sulfonylurea responsive repressor L1-20) MGSRLDKSKVINSALELLNEVGIEGLTTRKLAQKLGVEQPTLYWHVKNKRALLDALAIEMMDRHQTHFCPLEGESWQDFLRNNAKSMRCALLSHRDGAKVFLGTAWTEKQYETVENLLAFLCQQGFSLENALYALNAVATFTLGCVLWDQEKQVAKEERETPTTDSMPPLLRQAHELGDHQGAEPAFLFGLELIICGLEKQLKSESGS | most intensely responding | 2.0 | 13.5 | 22.0 | 15.0 | 12.4 | 1.6 | 1.4 | 2.0 | 6.0 | 2.6 | 2.6 |  |  |  |  |  | 
L1-31: library L1 hit, sulfonylurea-responsive TetR(B) variant (protein, Sulfonylurea responsive repressor L1-31) MGSRLDKSKVINSALELLNEVGIEGLTTRKLAQKLGVEQPTLYWHVKNKRALLDALAIEMLDRHATHFCPLEGESWQDFLRNNAKSMRCALLSHRDGAKVMLGTRATEKQYETVENRLAFLCQQGFSLENALYAVRAVHWFTLGCVLIDQEMQVAKEERETPTTDSMPPLLRQAYELYDHQGAEPAFLFGLELIICGLEKQLKCESGS |  | 0.4 | 1.1 | 1.4 | 13.7 | 0.5 | 0.5 | 0.3 | 0.4 | 0.9 | 0.9 | 0.1 |  |  |  |  |  | 
L1-38: library L1 hit, sulfonylurea-responsive TetR(B) variant (protein, Sulfonylurea responsive repressor L1-38) MGSRLDKSKVINSALELLNEVGIEGLTTRKLAQKLGVEQPTLYWHVKNKRALLDALAIEMADRHHTHFCPLEGESWQDFLRNNAKSMRCALLSHRDGAKVWLGTAWTEKQYETTENMLAFLCQQGFSLENALYAWRAVTMFTLGCVLRDQEWQVAKEERETPTTDSMPPLLRQALELGDHQGAEPAFLFGLELIICGLEKQLKCESGS |  | 6.4 | 15.3 | 14.0 | 14.8 | 14.7 | 8.7 | 9.5 | 9.5 | 18.3 | 16.7 | 15.8 |  |  |  |  |  | 
L1-9: library L1 hit, sulfonylurea-responsive TetR(B) variant, parent of L2 and L4 (protein, Sulfonylurea responsive repressor L1-09) MGSRLDKSKVINSALELLNEVGIEGLTTRKLAQKLGVEQPTLYWHVKNKRALLDALAIEMLDRHATHFCPLEGESWQDFLRNNAKSMRCALLSHRDGAKVCLGTGFTEKQYETAENSLAFLCQQGFSLENALYAMQAVCIFTLGCVLLDQELQVAKEERETPTTDSMPPLLRQALELKDHQGAEPAFLFGLELIICGLEKQLKCESGS | most intensely responding | 0.3 | 9.8 |  |  | 1.2 | 0.3 | 0.3 | 0.4 | 0.6 | 1.1 | 0.4 |  | 2.2 |  | 0.9 | 0.9 | 0.9
